For the test, the target named is Human Hsp90α (human) (UniProt P07900). As to the kind of experiment: cryo-EM structure.

In turn, “MBP (maltose-binding protein)-GR ligand-binding domain (LBD) (F602S) (520-777) (from UniProt P04150 520-777) (domain or fragment)” had a stoichiometry N (GR per Hsp90 dimer) of 1.

(Values after paper PMC8994517.)
